Each block holds one binder with its values, some of them ahead of it.
Assays:
[1] = molecular target: CD16A (FcgammaRIIIA) on primary human NK-cells (human) (UniProt P08637); experiment: cell-based or functional assay
[2] = molecular target: CD16A (FcgammaRIIIA) on primary human NK-cells (human) (UniProt P08637); experiment: flow cytometry, titration on primary human NK-cells at 37 C, buffer; detection with anti-His mAb
[3] = molecular target: CD16A (FcgammaRIIIA) on primary human NK-cells (human) (UniProt P08637); experiment: flow cytometry titration on primary human NK-cells, 37 C; detection with anti-His mAb, FITC goat anti-mouse IgG
[4] = molecular target: T1, CD16A (FcgammaRIIIA) on primary human NK-cells (human, UniProt P08637 17-208); experiment: flow cytometry, titration on primary human NK-cells at 37 C, buffer; apparent affinity
T1 construct: The assays used primary human NK-cells
Experimental: (§1) Method: Serial dilutions of anti-CD16A scFv are added to primary human NK-cells at 37° C. for 45 min followed by detection of antibody binding on ice.

[5] = molecular target: T2, B-cell maturation antigen (BCMA) on myeloma cell lines (human, UniProt Q02223 1-184); experiment: flow cytometry titration on NCI-H929 cells; detection with CD16A-mFc.67/anti-human-FITC
T2 construct: whole, on cells; also called CD269; TNFRSF17
T2 sequence (looked up): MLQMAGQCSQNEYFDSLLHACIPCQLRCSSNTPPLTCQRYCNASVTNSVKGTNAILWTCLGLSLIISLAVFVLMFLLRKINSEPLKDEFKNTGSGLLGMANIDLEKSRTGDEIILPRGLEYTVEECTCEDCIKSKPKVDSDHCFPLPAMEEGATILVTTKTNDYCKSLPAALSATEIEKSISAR
Experimental: (§2) Antibody binding was quantified by detection with CD16A-mFc.67/anti-human-FITC and flow cytometry. control antibodies anti-BCMA (ANC3B1), anti-CD38 (HB7) and anti-CS1 (235614) were added at saturating concentrations and detected by anti-mouse-Fc-FITC (ctrl.)

[6] = molecular target: T2, B-cell maturation antigen (BCMA) on …; experiment: flow cytometry, titration on RPMI-8226 cells; detection with CD16A-mFc.67/anti-human-FITC
Experimental: as §2

[7] = molecular target: T1, CD16A (FcgammaRIIIA) on primary human …; experiment: cell-based or functional assay
[8] = molecular target: T1, CD16A (FcgammaRIIIA) on primary human …; experiment: flow cytometry, titration on primary human NK-cells at 37 C in presence of 10 mg/mL polyclonal human IgG (competitor)
[9] = molecular target: T2, B-cell maturation antigen (BCMA) on …; experiment: flow cytometry, titration on NCI-H929 cells; detection with CD16A-mFc.67/anti-human-FITC
Experimental: as §2

[10] = molecular target: T1, CD16A (FcgammaRIIIA) on primary human …; experiment: flow cytometry on primary human NK-cells, with against without 10 mg/mL polyclonal human IgG
[11] = molecular target: T2, B-cell maturation antigen (BCMA) on …; experiment: cell-based or functional assay
[12] = molecular target: T1, CD16A (FcgammaRIIIA) on primary human …; experiment: flow cytometry, titration on primary human NK-cells at 37 C, buffer; apparent affinity; detection via BCMA(1-54)-GCN4-His/anti-His
[13] = molecular target: T2, B-cell maturation antigen (BCMA) on …; experiment: flow cytometry, titration on MM.1S cells; detection with CD16A-mFc.67/anti-human-FITC
Experimental: as §2

[14] = molecular target: T1, CD16A (FcgammaRIIIA) on primary human …; experiment: flow cytometry titration on primary human NK-cells, 37 C; detection with BCMA(1-54)-GCN4-His, anti-His mAb, FITC goat anti-mouse IgG
Experimental: as §1

[15] = molecular target: T2, B-cell maturation antigen (BCMA) on …; experiment: flow cytometry titration on MM.1S cells; detection with CD16A-mFc.67/anti-human-FITC
Experimental: as §2

[16] = molecular target: T1, CD16A (FcgammaRIIIA) on primary human …; experiment: flow cytometry titration on primary human NK-cells, 37 C, buffer without IgG; detection with BCMA(1-54)-GCN4-His, anti-His mAb, FITC goat anti-mouse IgG
[17] = molecular target: T1, CD16A (FcgammaRIIIA) on primary human …; experiment: flow cytometry titration on primary human NK-cells, 37 C, in presence of 10 mg/mL polyclonal human IgG; detection with BCMA(1-54)-GCN4-His, anti-His mAb, FITC goat anti-mouse IgG
[18] = molecular target: T2, B-cell maturation antigen (BCMA) on …; experiment: cell-based or functional assay; remark: listed apart in the source
[19] = molecular target: T3, CS1 on myeloma cells (UniProt Q9NQ25 23-335, limits assumed); experiment: flow cytometry, titration on NCI-H929 cells; detection with CD16A-mFc.67/anti-human-FITC
T3 construct: whole, on cells
Experimental: as §2

[20] = molecular target: T3, CS1 on myeloma cells; experiment: cell-based or functional assay
[21] = molecular target: T3, CS1 on myeloma cells; experiment: flow cytometry, titration on MM.1S cells; detection with CD16A-mFc.67/anti-human-FITC
Experimental: as §2

[22] = molecular target: T3, CS1 on myeloma cells; experiment: cell-based or functional assay; remark: listed apart in the source

CD16A (FcgammaRIIIA) on primary human NK-cells (human), sequence (P08637 17-208): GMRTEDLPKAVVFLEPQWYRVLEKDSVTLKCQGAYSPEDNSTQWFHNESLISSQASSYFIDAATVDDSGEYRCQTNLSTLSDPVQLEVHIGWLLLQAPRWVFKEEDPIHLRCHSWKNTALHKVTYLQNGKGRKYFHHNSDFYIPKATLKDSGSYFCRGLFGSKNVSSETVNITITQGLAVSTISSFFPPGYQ
T1 sequence (P08637 17-208): as above

B1: Anti-CD16A diabody (protein, not shown: small tags and cut ends)
VL: SYVLTQPSSVSVAPGQTATISCGGHNIGSKNVHWYQQRPGQSPVLVIYQDNKRPSGIPERFSGSNSGNTATLTISGTQAMDEADYYCQVWDNYSVLFGGGTKLTVL
VH: QVQLVQSGAEVKKPGESLKVSCKASGYTFTSYYMHWVRQAPGQGLEWMGAIEPMYGSTSYAQKFQGRVTMTRDTSTSTVYMELSSLRSEDTAVYYCARGSAYYYDFADYWGQGTLVTVSS
modifications: diabody linker not stated
- EC50 of antibody-induced NK-cell-NK-cell lysis (4 h calcein release) [1]: 0.659 nM

B2: Anti-CD16A scFv (scFv, V domains shown, part only)
VL: SYVLTQPSSVSVAPGQTATISCGGHNIGSKNVHWYQQRPGQSPVLVIYQDNKRPSGIPERFSGSNSGNTATLTISGTQAMDEADYYCQVWDNYSVLFGGGTKLTVL
VH: QVQLVQSGAEVKKPGESLKVSCKASGYTFTSYYMHWVRQAPGQGLEWMGAIEPMYGSTSYAQKFQGRVTMTRDTSTSTVYMELSSLRSEDTAVYYCARGSAYYYDFADYWGQGTLVTVSS
- Kd [2]: 12.2 nM
- EC50 (read off the curve) [3]: 10 nM

Second part, the binder after the results:

- Kd [4]: 1.2 nM
- EC50 (read off the curve) [5]: ~20 nM
- Kd [6]: 26.7 nM
- EC50 of NK-cell-mediated lysis of BCMA+ NCI-H929 cells (4 h calcein release), 10 mg/mL polyclonal human IgG [7]: 0.0761 nM
- EC50 of NK-cell-mediated lysis of BCMA+ NCI-H929 cells (4 h calcein release), buffer [7]: 0.0162 nM
- Fold-loss in potency (EC50 with 10 mg/mL IgG against buffer) [7]: 4.7 fold
- Kd [8]: 3.6 nM
- Kd [9]: 27.7 nM
- fold-change (KD with 10 mg/mL IgG against KD in buffer) [10]: 3 fold
- EC50 of NK-cell-mediated lysis of primary myeloma cells from a pleural effusion (multiple myeloma; 4 h 51Cr release) [11]: 0.004 nM
- EC50 of NK-cell-mediated lysis of primary myeloma cells from peripheral blood (plasma cell leukemia; 4 h 51Cr release) [11]: 0.0063 nM
- Kd [12]: 1.2 nM
- Kd [13]: 11.5 nM
- EC50 (read off the curve) [14]: ~1 nM
- EC50 (read off the curve) [15]: ~10 nM
- EC50 (read off the curve) [16]: ~1 nM
- EC50 (read off the curve) [17]: ~4 nM
- EC50 of NK-cell-mediated lysis of MM.1S cells (4 h calcein release) [18]: 0.0037 nM
- EC50 of NK-cell-mediated lysis of NCI-H929 cells (4 h calcein release) [18]: 0.0091 nM
- EC50 of NK-cell-mediated lysis of RPMI-8226 cells (4 h calcein release) [18]: 0.0623 nM
B3: BCMA/CD16A-directed tandem diabody in variant 4 (bispecific antibody)
chain: QVQLVQSGAEVKTPGEPLKISCKGSGYSFTDSWIGWVRQMPGKGLEWMGIIYAGDSDARYSPSFQGQVTISADTSTSTVYLQWSSLKASDTAMYYCARNFGDHWGQGTLVTVSSGGSGGSGGSGGSSYVLTQPSSVSVAPGQTATISCGGHNIGSKNVHWYQQRPGQSPVLVIYQDNKRPSGIPERFSGSNSGNTATLTISGTQAMDEADYYCQVWDNYSVLFGGGTKLTVLGGSQVQLVQSGAEVKKPGESLKVSCKASGYTFTSYYMHWVRQAPGQGLEWMGAIEPMYGSTSYAQKFQGRVTMTRDTSTSTVYMELSSLRSEDTAVYYCARGSAYYYDFADYWGQGTLVTVSSGGSGGSGGSGGSSYELTQSPSVSVAPGQTARIFCGGDNIGSKNVHWYQQKPGQAPVLVIYRDSNRPSGIPERFSGANSENTATLTISRAQAGDEADYYCQVWDSRTYVFGTGTKLTVL
notes: also called tandem diabody variant 4; Tandem diabody (v4)

- Kd [19]: 36 nM
- EC50 of NK-cell-mediated lysis of primary myeloma cells (multiple myeloma; 4 h 51Cr release) [20]: 0.145 nM
- EC50 of NK-cell-mediated lysis of primary myeloma cells (plasma cell leukemia; 4 h 51Cr release) [20]: 0.0782 nM
- Kd [21]: 35.7 nM
- EC50 of NK-cell-mediated lysis of MM.1S cells (4 h calcein release) [22]: 0.153 nM
- EC50 of NK-cell-mediated lysis of NCI-H929 cells (4 h calcein release) [22]: 0.394 nM
B4: elotuzumab (antibody, V domains shown)
VH: EVQLVESGGGLVQPGGSLRLSCAASGFDFSRYWMSWVRQAPGKGLEWIGEINPDSSTINYAPSLKDKFIISRDNAKNSLYLQMNSLRAEDTAVYYCARPDGNYWYFDVWGQGTLVTVSS
VL: DIQMTQSPSSLSASVGDRVTITCKASQDVGIAVAWYQQKPGKVPKLLIYWASTRHTGVPDRFSGSGSGTDFTLTISSLQPEDVATYYCQQYSSYPYTFGQGTKVEIK

Reference: US20220041717A1 (AFFIMED, published 2022)
